Data as given in the supplement of paper PMC10567573.

Experiment: protein stability index of a GFP-peptide fusion (GPS, HEK-293T) (PSI 1-6); higher = more stable
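Note: lentivirally expressed fusions sorted by FACS into six bins by GFP to DsRed ratio, PSI derived from sequencing read proportions per bin multiplied by bin number.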

QLDWDELETNQQHFHALCHSLLVS [C2orf65 WT]
protein stability index (parent: IOH10869_57, c terminus: a fixed tail appended): 2.16

IAQYALLGYFIRSWRTLAILVNLQ [SLC22A15 WT]
protein stability index (parent: IOH10897_34, c terminus: a fixed tail appended): 2.63

YARYHQAFADRDQSERQRHESQQL
protein stability index (parent: IOH11065_9, c terminus: a fixed tail appended): 2.09

YQEIFQQLQRSWVKMDQKSKHLKE
protein stability index (parent: IOH10304_35, c terminus: a fixed tail appended): 2.05

YHNSPAYLAYINAKSRAEAALEEE [SMARCE1 WT]
protein stability index (parent: IOH7424_23, c terminus: a fixed tail appended): 2.1

RVRPLARVTSLANLISPVRNGAVR
protein stability index (parent: IOH11256_7, c terminus: a fixed tail appended): 3.05

FSSSSQEAFAASAVGSGERRGGGP
protein stability index (parent: IOH10718_37, c terminus: a fixed tail appended): 3.33

LTKASLKPRGCSKPPWRPPGGKL
protein stability index (parent: IOH11209_36, c terminus: native): 2.04

RDIDLKNRRGGPPFAFVEFEDPRD
protein stability index (parent: IOH11039_8, c terminus: a fixed tail appended): 3.81

TYWEHWTSQGQVRMRLFGQRCQKC
protein stability index (parent: IOH10686_13, c terminus: a fixed tail appended): 1.83

YHSQDRYEFSSHITRGEHRFHMS
protein stability index (parent: IOH9679_77, c terminus: native): 2.09

HIKLHSGEKPFKCHLCNYACRRRD
protein stability index (parent: IOH9679_28, c terminus: a fixed tail appended): 1.92

RDPFECNMCGYHSQDRYEFSSHIT
protein stability index (parent: IOH9679_75, c terminus: a fixed tail appended): 1.89

AVLAASSPYFHDQVLLKGMTSISL
protein stability index (parent: IOH10718_13, c terminus: a fixed tail appended): 2.63

DECEKAYFYMSCLVKHKRIHSREK [ZNF649 WT]
protein stability index (parent: IOH7272_73, c terminus: a fixed tail appended): 2.53

FCDMDKSLLCLLCSNSQEHGAHKH
protein stability index (parent: IOH10304_18, c terminus: a fixed tail appended): 1.87

LQRVLEHRRRNQLIKKKKEELEAK
protein stability index (parent: IOH10203_12, c terminus: a fixed tail appended): 3.41

RGVRRTASTPTPDDKLFQKLAKVY [CPN1 WT]
protein stability index (parent: IOH11355_40, c terminus: a fixed tail appended): 1.95

TKHKCRQLTKASLKPRGCSKPPWR
protein stability index (parent: IOH11209_33, c terminus: a fixed tail appended): 2.75

YSPRRSRGSPRYSPRHSRSRSRT
protein stability index (parent: IOH11039_42, c terminus: native): 3.93

FSDSSMDHFQKFLPTVGGQLGTAG [MYOZ1 WT]
protein stability index (parent: IOH11059_14, c terminus: a fixed tail appended): 2.43

RAQMIRNEYRKLHPVLHKEEKQHL
protein stability index (parent: IOH10304_30, c terminus: a fixed tail appended): 3.05

FLRQLPFRGDDGIFDDNFIEERKQ [SNX3 WT]
protein stability index (parent: IOH7529_17, c terminus: a fixed tail appended): 3.4

RPFDCPVCNKKFKMKHHLTEHMKT
protein stability index (parent: IOH10718_86, c terminus: a fixed tail appended): 2.37

LYKEELEQTYHAKLENARLSSEMN [LMNB1 WT]
protein stability index (parent: IOH11078_44, c terminus: a fixed tail appended): 2.79

DMRDPTYRPLKQELQGLDYCKPTR [SPSB1 WT]
protein stability index (parent: IOH10100_3, c terminus: a fixed tail appended): 3.17

PTPAKRRSSALWSEMLDITMKESL
protein stability index (parent: IOH11256_16, c terminus: a fixed tail appended): 2.21

YLDPSVLSGVSCFVMFLCLADYLV [ARL6IP1 WT]
protein stability index (parent: IOH11244_11, c terminus: a fixed tail appended): 2.87

FLRGPSGPRFGPRNDKIKHVQNQV
protein stability index (parent: IOH7463_7, c terminus: a fixed tail appended): 2.7

CTACGSVLEDNIIVSEVQFVESSG
protein stability index (parent: IOH11305_5, c terminus: a fixed tail appended): 3.03

AFGWFRCSSCQRSWASAQVQILCH
protein stability index (parent: IOH10686_9, c terminus: a fixed tail appended): 2.29

NRFRVEISFHFEVTNHNIRLFEDV
protein stability index (parent: IOH10304_48, c terminus: a fixed tail appended): 2.93

FVEDSFDPNINPTIGASFMTKTVQ [RAB22A WT]
protein stability index (parent: IOH10004_5, c terminus: a fixed tail appended): 2.26

HYPFLGAMGDHSKKKPGTAMCVGC [ISL2 WT]
protein stability index (parent: IOH10979_2, c terminus: a fixed tail appended): 2.74

IHSIALSTFASLIGPFGGFFASGF
protein stability index (parent: IOH10978_57, c terminus: a fixed tail appended): 3.13

HRRGLGVDSKPELQRVLEHRRRNQ
protein stability index (parent: IOH10203_10, c terminus: a fixed tail appended): 3.91

LREKLLEAEQSLRNLEDIHMSLEK
protein stability index (parent: IOH11065_64, c terminus: a fixed tail appended): 2.56

NNSWIRKNSTMVNSEDIFLLLCLK
protein stability index (parent: IOH10304_60, c terminus: a fixed tail appended): 2.69

SEVEELNMSLTALREKLLEAEQSL
protein stability index (parent: IOH11065_62, c terminus: a fixed tail appended): 2.99

TLARCAKDILGFAVMFFIVFFAYA
protein stability index (parent: IOH11095_79, c terminus: a fixed tail appended): 2.95

YSGGGYYLDLPGSRQGSAEALRAL
protein stability index (parent: IOH11095_45, c terminus: a fixed tail appended): 1.95

HTGLKPYECGVCAKKFMWRDSFMR
protein stability index (parent: IOH10718_90, c terminus: a fixed tail appended): 2.3

FVESSGGGSSAVGQFVSLDGAGKT
protein stability index (parent: IOH11305_8, c terminus: a fixed tail appended): 2.44

KSCQACRLRKCYEVGMVKCGSRRE [ESR2 WT]
protein stability index (parent: IOH10714_34, c terminus: a fixed tail appended): 1.85

TYECRCIGEEKEMWNFGEKYARF [TIA1 WT]
protein stability index (parent: IOH10042_33, c terminus: native): 1.9

YSGAYGASVSDEELKRRVAEELAL [CHCHD3 WT]
protein stability index (parent: IOH11162_9, c terminus: a fixed tail appended): 2.57

FAPQTGARPSETFARFCKSQESAL [C19orf51 WT]
protein stability index (parent: IOH10770_74, c terminus: a fixed tail appended): 2.22

SGPEAARAGGWVSGEEFYMLTRRV
protein stability index (parent: IOH11095_116, c terminus: a fixed tail appended): 2.25

TSGKRYVYRFVCDLQNLLGFTPEE [ETS2 WT]
protein stability index (parent: IOH10422_73, c terminus: a fixed tail appended): 2.7

LIVVTQSHLVIHNLFEGMIWFIVP
protein stability index (parent: IOH10978_35, c terminus: a fixed tail appended): 2.99

VFIFYYVVEEILELHIHRLRYLSS
protein stability index (parent: IOH11095_61, c terminus: a fixed tail appended): 2.92

IKRTIRVLDVNNQSFREQEEPSNK
protein stability index (parent: IOH11256_3, c terminus: a fixed tail appended): 3.53

IMALVAAILLLVIIILIVMKYRT
protein stability index (parent: IOH7463_24, c terminus: native): 2.83
